Assay results taken from the supplement of paper PMC7125110.
± gives the standard error. For some assays here: This sample holds only a part of the variants without activity.

B1: glmS ribozyme (parent)
chain: AUAAAAGCGCCAGAACUACAGAAAUGUAGUUGACGAGGAGGAGGUUUAUCGAAUUUUCGGCGGAUGCCUCCAAA

How the values were obtained:
Settings in all cases: with glucosamine-6-phosphate
glucosamine-6-phosphate [1] = variants of: B1; assay: kcat; higher = faster cleavage; RNA array
Procedure, shortened: (§1)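 Over ~14 h at 37 °C, tiles were imaged as glucosamine-6-phosphate (40 μM to 10 mM) in HEPES/KCl/Mg(OAc)2 buffer flowed across sequenced MiSeq chips. The chips carried barcoded ribozyme variants transcribed in situ by E. coli RNA polymerase and tracked with a hybridised Cy3 probe. After normalisation to baseline and to non-cleaving reference variants, one- or two-exponential decay fits of per-tile medians gave kobs. kcat and KM followed from weighted Michaelis–Menten fits across concentrations.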

glucosamine-6-phosphate [2] = variants of: B1; assay: KM; higher = weaker cofactor use; RNA array
Procedure, shortened: as §1

glucosamine-6-phosphate [3] = variants of: B1; assay: self-cleavage kobs at 160 uM GlcN6P; higher = faster cleavage; RNA array
Procedure, shortened: as §1

glucosamine-6-phosphate [4] = variants of: B1; assay: self-cleavage kobs at 640 uM GlcN6P; higher = faster cleavage; RNA array
Procedure, shortened: as §1

glucosamine-6-phosphate [5] = variants of: B1; assay: self-cleavage kobs at 2500 uM GlcN6P; higher = faster cleavage; RNA array
Procedure, shortened: as §1

glucosamine-6-phosphate [6] = variants of: B1; assay: self-cleavage kobs at 10000 uM GlcN6P; higher = faster cleavage; RNA array
Procedure, shortened: as §1

glucosamine-6-phosphate [7] = variants of: B1; assay: self-cleavage kobs at 40 uM GlcN6P; higher = faster cleavage; RNA array
Procedure, shortened: as §1

Variant | kcat (glucosamine-6-phosphate [1]) | KM (glucosamine-6-phosphate [2]) | self-cleavage kobs at 160 uM GlcN6P (glucosamine-6-phosphate [3]) | self-cleavage kobs at 640 uM GlcN6P (glucosamine-6-phosphate [4]) | self-cleavage kobs at 2500 uM GlcN6P (glucosamine-6-phosphate [5]) | self-cleavage kobs at 10000 uM GlcN6P (glucosamine-6-phosphate [6]) | self-cleavage kobs at 40 uM GlcN6P (glucosamine-6-phosphate [7])
AUAAAAGCGCUAGAACUACAGAAAUGUAGCUGACGAGGAGGAGGUUUAUCGAAUUUUCGGCGGAUGCCUCCAAA [C11U U30C] | 0.000527 ± 0.00014 s⁻¹ | 2780 ± 1100 µM | 5.41e-05 ± 2.1e-05 s⁻¹ | 9.85e-05 ± 1.3e-05 s⁻¹ | 0.000213 ± 4.9e-05 s⁻¹ | 0.000465 ± 9.9e-05 s⁻¹ | 
AUAAAAGCGCUAUAACUACAGAAAUGUAGUUGACGAGGAGGAGGUUUAUCGAAUUUUCGGCGGAUGCCUCCAAA [C11U G13U] | 6.21e-05 ± 5.4e-06 s⁻¹ | 1020 ± 420 µM |  |  | 4.88e-05 ± 9.5e-06 s⁻¹ | 5.47e-05 ± 8.2e-06 s⁻¹ | 
AUAAAAGCGCUACAACUACAGAAAUGUAGUUGACGAGGAGGAGGUUUAUCGUAUUUUCGGCGGAUGCCUUCAAA [C11U G13C A52U C70U] | 1.58e-05 ± 5.8e-06 s⁻¹ |  |  |  |  | < 1e-05 s⁻¹ | < 1e-05 s⁻¹
AUAAAAGCGCUAGAAGUACAGAAAUGUAGUUGACGAGGAGGAGGUUUAUCGAAUUUUCGGCGGAUGCCUCCAAA [C11U C16G] | 0.000546 ± 4.2e-05 s⁻¹ | 2850 ± 410 µM |  | 0.000104 ± 1.9e-05 s⁻¹ | 0.000258 ± 4.8e-05 s⁻¹ | 0.000423 ± 5.7e-05 s⁻¹ | 
AUAAAAGCGCUAGAAAUACAGAAAUGUAGUUGACGAGGAGGAGGUUUAUCGAAUUUUCGGCGGAUGCCUCCAAA [C11U C16A] | 0.000174 ± 7e-06 s⁻¹ | 1760 ± 190 µM |  | 4.38e-05 ± 1.9e-05 s⁻¹ | 0.000106 ± 2.2e-05 s⁻¹ | 0.000145 ± 2.9e-05 s⁻¹ | 
AUAAAAGCGCUAGAACUACAGAAAUGUAGUUGACGAGGAGGAGGUUUAUCGAAUUUUCGGCGGAUACCACCAAA [C11U G66A U69A] | 5.61e-05 ± 6.6e-06 s⁻¹ |  |  | 4.24e-05 ± 1.5e-05 s⁻¹ | 4.46e-05 ± 1.3e-05 s⁻¹ | 6.32e-05 ± 1.9e-05 s⁻¹ | 
AUAAAAGCGCUAGAACUACAGAAAUGUAGUUGACGACGAGGAGGUUUAUCGAAUUUACGGCGGAUGCCUCCAAA [C11U G37C U57A] | 1.82e-05 ± 2.9e-06 s⁻¹ |  |  |  |  | < 1e-05 s⁻¹ | 
AUAAAAGCGCUAGAACUACAGAAAUGUAGUUUACGAGGAGGAGGUUUAUCGAAUUUUCGGCGGAUGCCUCCAAA [C11U G32U] | 0.000176 ± 8e-05 s⁻¹ |  |  |  |  | 3.94e-05 ± 5.4e-06 s⁻¹ | 
AUAAAAGCGCUAGAACUACAGAAAUGUAGUUGACGAGAAGGAGGUUUAUCGAAUUUUCGGCGGAUGCCUCCAAA [C11U G38A] | < 1e-05 s⁻¹ |  | < 1e-05 s⁻¹ |  |  | < 1e-05 s⁻¹ | < 1e-05 s⁻¹
AUAAAAGCGCUAGAACUACAGAAAUGUAGUUGACGAGCAGGAGGUUUAUCGAAUUUUCGGCGGAUGCCUCCAAA [C11U G38C] | < 1e-05 s⁻¹ |  |  | < 1e-05 s⁻¹ | < 1e-05 s⁻¹ |  | 
AUAAAAGCGCUAGAACUACAGAAAUGUAGUUGACGAGGAGGAGGUUUAUCGAAUUUUCGGCGGAUGGCUCCAAA [C11U C67G] | 0.000216 ± 2.7e-05 s⁻¹ | 633 ± 220 µM | 4.28e-05 ± 9.2e-06 s⁻¹ | 0.000102 ± 1e-05 s⁻¹ | 0.000218 ± 2.2e-05 s⁻¹ | 0.000189 ± 1.7e-05 s⁻¹ | 2.61e-05 ± 1.2e-05 s⁻¹
AUAAAAGCGCUAGAACUACAGAAAUGUAGUUGACGAGGAGGAGGUUUAUCGAAUUUUCGGCGGAUGCCUACAAA [C11U C70A] | 5.41e-05 ± 1e-05 s⁻¹ |  |  | 8.46e-05 ± 1.3e-05 s⁻¹ | 5.81e-05 ± 9.9e-06 s⁻¹ | 4.63e-05 ± 6.2e-06 s⁻¹ | 
AUAAAAGCGCUAGAACUACAGAAAUGUAGUCGACGAGGAGGAGGUUUAUCGAAUUUUCGGCGGAUGCCUCCAAA [C11U U31C] | 0.000563 ± 7.8e-05 s⁻¹ | 1620 ± 460 µM | 2.97e-05 ± 1.5e-05 s⁻¹ | 0.000179 ± 2.3e-05 s⁻¹ | 0.000364 ± 5.9e-05 s⁻¹ | 0.000465 ± 5.5e-05 s⁻¹ | 
AUAAAAGCGCUAGAACUACAGAAAUGUAGUAGACGAGGAGGAGGUUUAUCGAAUUUUCGGCGGAUGCCUCCAAA [C11U U31A] | 0.00134 ± 0.00062 s⁻¹ |  | 9.69e-05 ± 2.6e-05 s⁻¹ | 0.000376 ± 6.7e-05 s⁻¹ | 0.000431 ± 0.00012 s⁻¹ | 0.00146 ± 0.00025 s⁻¹ | 
AUAAAAGCGCUAGAACUACAGAAAUGUAGUUGACGAGGAGGAGGUUUAUGGAAUUUUAGGCGGAUGCCUCCAAA [C11U C50G C58A] | 0.000158 ± 1.6e-05 s⁻¹ |  | 0.00015 ± 1.7e-05 s⁻¹ | 0.000189 ± 3e-05 s⁻¹ | 0.000242 ± 0.00011 s⁻¹ | 0.000135 ± 2.2e-05 s⁻¹ | 0.000112 ± 3.6e-05 s⁻¹
AUAAAAGCGCUAGAACUACAGAAAUGUAUUUGACGAGGAGGAGGUUUAUCGAAUUUUCGGCGGAUGCCUCCAAA [C11U G29U] | 0.000681 ± 0.00029 s⁻¹ |  | 5.37e-05 ± 1.3e-05 s⁻¹ | 7.49e-05 ± 1.3e-05 s⁻¹ | 0.000407 ± 6.3e-05 s⁻¹ | 0.000463 ± 6.1e-05 s⁻¹ | 
AUAAAAGCGCUAGAACUACAGAAAUGUAGUUGACGAGGAAGAGGUUUAUCGAAUUUUCGGCGGAUGCCUCCAAA [C11U G40A] | 0.000548 ± 0.00025 s⁻¹ |  |  | 8.42e-05 ± 2.2e-05 s⁻¹ | 0.000128 ± 3e-05 s⁻¹ | 0.000374 ± 6.8e-05 s⁻¹ | 
AUAAAAGCGCUAGAACUACAGAAAUGUAGUUGACGAGGAGGAGGUUUAUCGAAUUUUCGGCGGAUGCAUCGAAA [C11U C68A C71G] | 5.97e-05 ± 2.3e-05 s⁻¹ |  |  | 0.000101 ± 2.3e-05 s⁻¹ |  |  | 
